Assay results taken from article PMC11342882.

Target: FcRn with a C-terminal 6×His-tag and complexed with beta-2-microglobulin (UniProt P55899)
Experiment: BLI

FcRn with a C-terminal 6×His-tag and complexed with beta-2-microglobulin, sequence (P55899 24-297, chain 1 of 2): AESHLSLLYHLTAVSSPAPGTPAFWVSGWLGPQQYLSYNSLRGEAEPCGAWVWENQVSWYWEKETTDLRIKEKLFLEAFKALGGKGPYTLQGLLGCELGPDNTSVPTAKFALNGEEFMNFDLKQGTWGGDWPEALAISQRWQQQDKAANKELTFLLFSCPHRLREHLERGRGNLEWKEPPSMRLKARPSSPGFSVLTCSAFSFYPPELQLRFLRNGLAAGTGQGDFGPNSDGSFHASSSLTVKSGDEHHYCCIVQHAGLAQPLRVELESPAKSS
FcRn with a C-terminal 6×His-tag and complexed with beta-2-microglobulin, sequence (P61769 21-119, chain 2 of 2, further chain): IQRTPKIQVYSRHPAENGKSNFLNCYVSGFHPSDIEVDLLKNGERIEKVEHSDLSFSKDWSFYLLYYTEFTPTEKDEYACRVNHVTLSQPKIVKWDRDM

Substance | Kd
sACE2_(2).v2.4-IgG1 (from UniProt Q9BYF1-1 18-732) (Fc fusion) | > 100 nM
sACE2_(2).v2.4-IgG1(YTE) from Expi293F (from UniProt Q9BYF1-1 18-732) (Fc fusion) | 21 nM
